In test [1] the target is 6xHis-tagged RcsF (E. coli) (UniProt P69411). As to the kind of experiment: BLI. A general note: In BLI a coated tip is dipped into the sample, and binding shifts an interference pattern.
Test [2] has as its target Untagged BamA (biolayer interferometry) (E. coli), P0A940. As to the kind of experiment: BLI. The note with it: remark: other sources report otherwise.
For a further test, the target named is BamACDE complex (E. coli, UniProt P0A940;P0A903;P0AC02;P0A937). The test can be described thus: native gel or EMSA.
Chain of BamACDE complex (P0A903 25-344, chain 2 of 3): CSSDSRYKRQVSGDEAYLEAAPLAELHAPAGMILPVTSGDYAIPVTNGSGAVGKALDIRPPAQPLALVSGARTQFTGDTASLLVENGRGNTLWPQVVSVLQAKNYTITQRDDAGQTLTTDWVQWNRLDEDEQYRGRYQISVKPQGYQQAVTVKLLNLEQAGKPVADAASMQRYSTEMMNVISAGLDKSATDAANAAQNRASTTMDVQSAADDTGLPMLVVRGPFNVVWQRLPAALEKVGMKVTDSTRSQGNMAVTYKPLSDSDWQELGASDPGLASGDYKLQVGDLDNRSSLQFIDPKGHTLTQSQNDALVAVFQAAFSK
Chain of BamACDE complex (P0AC02 20-245, chain 3 of 3): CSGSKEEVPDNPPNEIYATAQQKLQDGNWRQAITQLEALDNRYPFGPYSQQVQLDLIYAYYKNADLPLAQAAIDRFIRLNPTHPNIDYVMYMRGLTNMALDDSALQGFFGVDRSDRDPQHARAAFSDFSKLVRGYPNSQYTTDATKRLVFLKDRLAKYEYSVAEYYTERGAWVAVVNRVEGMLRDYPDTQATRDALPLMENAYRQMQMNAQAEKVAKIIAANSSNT
Chain of BamACDE complex (P0A937 20-113, chain 4 of 3): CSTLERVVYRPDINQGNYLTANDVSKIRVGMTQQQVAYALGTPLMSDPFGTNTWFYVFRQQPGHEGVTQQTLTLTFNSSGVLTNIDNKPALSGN
The next test addresses BamABDE complex (E. coli, UniProt P0A940;P77774;P0AC02;P0A937). The test can be described thus: native gel or EMSA. Background: A gel shift assay detects complexes by their altered migration in electrophoresis.
Test [3] concerns the target BamABCDE holocomplex (BAM) (E. coli, UniProt P0A940;P77774;P0A903;P0AC02;P0A937). As to the kind of experiment: native gel or EMSA.

These results are taken from paper doi:10.1101/823146 (bioRxiv, 2019).

Chain of BamABCDE holocomplex (BAM) (P77774 20-392, chain 2 of 4): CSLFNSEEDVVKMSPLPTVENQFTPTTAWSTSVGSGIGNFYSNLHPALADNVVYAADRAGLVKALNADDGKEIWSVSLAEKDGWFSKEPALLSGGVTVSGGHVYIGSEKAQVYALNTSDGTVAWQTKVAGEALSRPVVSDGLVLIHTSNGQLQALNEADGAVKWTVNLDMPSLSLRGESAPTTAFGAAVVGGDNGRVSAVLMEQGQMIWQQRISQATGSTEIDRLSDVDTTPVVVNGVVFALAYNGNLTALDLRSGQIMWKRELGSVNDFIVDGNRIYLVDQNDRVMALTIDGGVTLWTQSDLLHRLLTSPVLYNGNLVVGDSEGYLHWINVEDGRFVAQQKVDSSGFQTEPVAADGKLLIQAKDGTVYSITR
Chain of BamABCDE holocomplex (BAM) (P0A903 25-344, chain 3 of 4): as the sequence (P0A903 25-344, chain 2 of 3) above
Chain of BamABCDE holocomplex (BAM) (P0AC02 20-245, chain 4 of 4): as the sequence (P0AC02 20-245, chain 3 of 3) above
Chain of BamABCDE holocomplex (BAM) (P0A937 20-113, chain 5 of 4): as the sequence (P0A937 20-113, chain 4 of 3) above
Chain of BamABDE complex (P77774 20-392, chain 2 of 3): as the sequence (P77774 20-392, chain 2 of 4) above
Chain of BamABDE complex (P0AC02 20-245, chain 3 of 3): as the sequence (P0AC02 20-245, chain 3 of 3) above
Chain of BamABDE complex (P0A937 20-113, chain 4 of 3): as the sequence (P0A937 20-113, chain 4 of 3) above

In the case of “Untagged BamA (biolayer interferometry) (from UniProt P0A940 21-810) (natural protein; other documents disagree on this pair)”, the equilibrium dissociation constant (Kd) (commonly the equilibrium constant for the complex coming apart) in test [1] turned out to be 420 nM.

B1: 6xHis-tagged RcsF, P69411 16-134 (natural protein)
chain: CSMLSRSPVEPVQSTAPQPKAEPAKPKAPRATPVRIYTNAEELVGKPFRDLGEVSGDSCQASNQDSPPSIPTARKRMQINASKMKANAVLLHSCEVTSGTPGCYRQAVCIGSALNITAK
modifications: here or on the partner: biotin (EZ-Link NHS-PEG4-biotin) where BamA was immobilised on streptavidin tips
In test [2], B1 registered a Kd of 350 nM. That is a sub-micromolar value.

B2: RcsF (overexpressed from pSC216) (natural protein)
chain: B1 chain
modifications: lipid anchor (outer membrane lipoprotein)
Regarding B2, the binding result (with BamACDE complex; with BamABDE complex; in test [3]) was “binds” throughout.
